5 molecules from article PMC8804933 (The EMBO Journal, 2021) can be followed below.

The term Kd denotes the constant that tells how readily two partners part at equilibrium. A low value points to tighter binding.

A value given as a limit tells only on which side of the number the result lay.

Test [1] has as its target T1, ubiquitin (unlabeled, wild-type) (human, UniProt P0CG48 1-76). As to the kind of experiment: NMR titration.
Test [2] concerns the target T1, ubiquitin (unlabeled, wild-type). Put plainly: BLI. A general note: Biolayer interferometry detects binding as a change in optical thickness at a sensor tip.

B1: 15N-labeled UBE2S UBC E139R/E143R (residues 1-156) (domain or fragment)
chain: MNSNVENLPPHIIRLVYKEVTTLTADPPDGIKVFPNEEDLTDLQVTIEGPEGTPYAGGLFRMKLLLGKDFPASPPKGYFLTKIFHPNVGANGEICVNVLKRDWTAELGIRHVLLTIKCLLIHPNPESALNEEAGRLLLRNYERYAARARLLTEIHG
In the case of B1, the binding result in test [1] was “binds”.

B2: 15N-labeled UBE2S UBC E139R (residues 1-156) (domain or fragment)
chain: MNSNVENLPPHIIRLVYKEVTTLTADPPDGIKVFPNEEDLTDLQVTIEGPEGTPYAGGLFRMKLLLGKDFPASPPKGYFLTKIFHPNVGANGEICVNVLKRDWTAELGIRHVLLTIKCLLIHPNPESALNEEAGRLLLRNYEEYAARARLLTEIHG
B2: the binding result in test [1] is reported as “binds”.

B3: 15N-labeled UBE2S UBC E143R (residues 1-156) (domain or fragment)
chain: MNSNVENLPPHIIRLVYKEVTTLTADPPDGIKVFPNEEDLTDLQVTIEGPEGTPYAGGLFRMKLLLGKDFPASPPKGYFLTKIFHPNVGANGEICVNVLKRDWTAELGIRHVLLTIKCLLIHPNPESALNEEAGRLLLENYERYAARARLLTEIHG
For B3, the binding result in test [1] is given as “binds”.

B4: GST-UBE2R2 wild-type (enzyme)
chain: MAQQQMTSSQKALMLELKSLQEEPVEGFRITLVDESDLYNWEVAIFGPPNTLYEGGYFKAHIKFPIDYPYSPPTFRFLTKMWHPNIYENGDVCISILHPPVDDPQSGELPSERWNPTQNVRTILLSVISLLNEPNTFSPANVDASVMFRKWRDSKGKDKEYAEIIRKQVSATKAEAEKDGVKVPTTLAEYCIKTKVPSNDNSSDLLYDDLYDDDIDDEDEEEEDADCYDDDDSGNEES
In test [2], B4 gave a Kd of 650 µM.

B5: GST-UBE2R2 R149E (enzyme)
chain: MAQQQMTSSQKALMLELKSLQEEPVEGFRITLVDESDLYNWEVAIFGPPNTLYEGGYFKAHIKFPIDYPYSPPTFRFLTKMWHPNIYENGDVCISILHPPVDDPQSGELPSERWNPTQNVRTILLSVISLLNEPNTFSPANVDASVMFEKWRDSKGKDKEYAEIIRKQVSATKAEAEKDGVKVPTTLAEYCIKTKVPSNDNSSDLLYDDLYDDDIDDEDEEEEDADCYDDDDSGNEES
As for B5, in test [2], the Kd is over 4000 µM.
